Source: patent US20240093191A1, “COMPOSITIONS AND METHODS FOR TREATING DISEASE ASSOCIATED WITH DUX4 OVEREXPRESSION” (RESEARCH INSTITUTE AT NATIONWIDE CHILDREN'S HOSPITAL, priority 2021, published 2024)

What was measured:
mir-675 = conditions: published gene expression studies; cited from earlier work
[1] = test system: DUX4 ORF (RenLuc-DUX4 ORF); test: Dual-luciferase assay, RenLuc-DUX4 ORF reporter co-transfected with miDUX4 plasmids in HEK293 cells; type: cell-based, human; conditions: DUX4:mi405 molar ratio 2 to 1; HEK293; 24 h; normalized to U6.miGFP
Method: Dual Luciferase Assay. (See also FIGS. 1A, 3A-B, 4A-B, 5B, and 16B-C.) This assay was performed as previously described by Wallace et al. (Mol. Ther. Methods Clin. Dev. 8: 121-30 (2018)) and following the dual-luciferase reporter assay system (Promega) protocol with some modifications. All plasmid constructs had the psiCheck2 dual luciferase reporter plasmid (Promega) as backbone that contains separate Renilla and Firefly luciferase genes, where the former contains the various target sequences used in the experiments of the disclosure, and the latter serves as a transfection normalizer (control). All DUX4 and control sequences were cloned downstream of the Renilla luciferase stop codon, serving as a 3′UTR. HEK293 cells were pre-plated 24h before transfection. Cells were then co-transfected with the luciferase DUX4 reporter and individual microRNA expression plasmids in an increasing luciferase DUX4 reporter:miRNA molar ratio using Lipofectamine 2000 (Invitrogen). Luciferase activity was measured 24h or 48h after transfection. DUX4 gene silencing was determined as previously described [Wallace et al., Mol. Ther. Methods Clin. Dev. 8: 121-30 (2018)]. Triplicate data were averaged per experiment, and individual experiments were performed 3 times. Results were reported as the average ratio of Renilla to Firefly luciferase activity±SEM for all combined experiments.
Accordingly, two new mi405 constructs, i.e., mi405F and mi405NF, were designed. […] To assess the inhibition efficiency of the three mi405 constructs, a dual-luciferase assay and western blot analysis, similar to what was described for mir-675, were carried out. In the dual-luciferase assay, U6.mi405, U6.mi405F, or U6.mi405NF was co-transfected into HEK293 cells along with the RenLuc-DUX4 ORF (a construct expressing the open reading frame of DUX4 as a 3′UTR sequence of Renilla Luciferase). 24 h after transfection, U6.mi405, U6.mi405F, and U6.mi405NF reduced the relative Renilla luciferase activity by 85±1%, 89±1%, and 66±1% (P<0.0001, ANOVA, N=3), respectively, when tested against the RenLuc-DUX4 ORF construct.

mi405 mature sequence = test: QPCR of mature mi405 (standard TaqMan cDNA synthesis) in HEK293 cells; type: cell-based, human; conditions: 24 h after transfection; for reduction of mature mi405 sequence expression relative to U6.mi405: normalized to RPL13A
Method: TaqMan Gene Expression Assay. QRT-PCR was carried out to quantify the expression of pri-mir-675, mir-675-5p and mi405 using TaqMan probes (ThermoFisher Scientific). Experiments were started by eliminating genomic DNA from the RNA preparations, and then cDNA was generated using the High-Capacity cDNA Reverse Transcription Kit (Applied Biosystems) following manufacturer's instructions. Within the same cDNA reaction, 1×RT random hexamer primers were used to generate the cDNA for RPL13A, used as a reference gene, and for pri-mir-675. To generate the cDNA for mir-675, the RT mir-675 reverse primer provided by ThermoFisher Scientific was used. For mi405, the mi405 qPCR protocol was done as it was previously described [Wallace et al., Mol. Ther. Methods Clin. Dev. 8: 121-30 (2018)]. To quantify mir-675 and mi405 levels, RNA was extracted using the total RNA protocol for the mirVana miRNA Isolation Kit (Ambion) from HEK293 cells. cDNA was generated using the High-Capacity cDNA Reverse Transcription Kit (Applied Biosystems) using a mix of random hexamer primers and specific reverse primer for pri-mir-675 and mir-675-5p. For mi405, 200 nM of the stem-loop forming primer (5′-[…]-3′) (SEQ ID NO: 144) was also used for the RT step. A custom TaqMan assay (Applied Biosystems) including 1.5 μM of Forward primer (5′-[…]-3′) (SEQ ID NO: 145), 0.7 μM of Reverse primer (5′-GTGCAGGGTCCGAGGT-3′) (SEQ ID NO: 146), and 0.2 μM of mi405 probe (5′-6FAM-ATACGACGTCCAGGAT-3′) (SEQ ID NO: 147) was then run using the CFX Connect Real Time system apparatus (Bio-Rad). RPL13A (Mm02526700_g1; Applied Biosystems) served as the reference gene. The TaqMan gene expression assay consisted of using the TaqMan Gene Expression Master mix and TaqMan probes purchased from ThermoFisher Scientific. 1× of probe was mixed with 1× of the TaqMan Gene Expression Master mix (ThermoFisher Scientific), and with 20 ng of cDNA. The mir-675- and mi405-specific primers and probes were designed to quantify only the mir-675-5p and mi405 mature sequence (see TaqMan Gene Expression Master mix protocol).
Apart from the effect on the inhibition efficiency of mi405, the effect of the flanking sequences on the expression of the miRNA also was tested. Therefore, the expression of the processed mature mi405 sequences was quantified using the standard and advanced TaqMan cDNA synthesis reaction. In the former reaction, a reverse primer detects the mature mi405 sequence following a stem-loop primer-based small RNA detection principle (ThermoFisher Scientific) (Jung et al., RNA (2013) 19: 1-10). The amplification and quantification steps were then performed using a standard TaqMan probe specific to mi405 that base pairs at the junction between the mi405 mature sequence and the reverse primer sequence (FIG. 6A). […] In the TaqMan advanced cDNA synthesis reaction, the mature sequence is extended through ligation of an adaptor sequence at the 5′ end and through the enzymatic addition of a polyA tail at the 3′ end of the mature mi405 sequence. The amplification and quantification steps were then performed using a TaqMan advanced probe specific to mi405 that normally base pairs with the 3′ end of the mature miRNA and with part of the adaptor sequence. Here, an additional TaqMan advanced probe (embedded probe) that only base pairs with the mature sequence of mi405 (FIG. 6B) was used. As a result, following TaqMan advanced cDNA synthesis reaction, droplet digital PCR (ddPCR) was performed to quantify mi405, mi405F, mi405B, mi405C, mi405G and mi405H expression levels. For this, TaqMan advanced embedded and overlapped mi405 probes (FIG. 6B) were used.

Molecule | mir-675 expression (mir-675) | reduction of Renilla luciferase activity [1] [%] | levels of mature mi405 sequence compared to U6.mi405 (mi405 mature sequence) | reduction of mature mi405 sequence expression relative to U6.mi405 (mi405 mature sequence) [%]
bleomycin | upregulated mir-675 expression | – | – | –
estrogen | mir-675 was induced | – | – | –
U6.mi405D: mi405 construct with altered flanking sequences (nucleic acid) DNA: ACGCCGCCATCTCTAGGCCCGCGCCGGCCCCCTCGCACAGACTTGTGGGAGAAGCTCGGCTACTCCCCTGCCCCGGTTAATTTGCATATAATATTTCCTAGTAACTATAGAGGCTTAATGTGCGATAAAAGACAGATAATCTGTTCTTTTTAATACTAGCTACATTTTACATGATAGGCTTGGATTTCTATAAGAGATACAAATACTAAATTATTATTTTAAAAAACAGCACAAAAGGAAACTCACCCTAACTGTAAAGTAATTGTGTGTTTTGAGACTATAAATATCCCTTGGAGAAAAGCCTTGTTTGACTCGAGTGAGCGATCCAGGATTCAGATCTGGTTTCTGTAAAGCCACAGATGGGAAACCAGATCTGAATCCTGGACTGCCTACTAGAGCGGCCGCCACTTTTTT | – | 71±1 | greater or higher with the difference not being statistically significant | –
U6.mi405E: mi405 construct with altered flanking sequences (nucleic acid) DNA: ACGCCGCCATCTCTAGGCCCGCGCCGGCCCCCTCGCACAGACTTGTGGGAGAAGCTCGGCTACTCCCCTGCCCCGGTTAATTTGCATATAATATTTCCTAGTAACTATAGAGGCTTAATGTGCGATAAAAGACAGATAATCTGTTCTTTTTAATACTAGCTACATTTTACATGATAGGCTTGGATTTCTATAAGAGATACAAATACTAAATTATTATTTTAAAAAACAGCACAAAAGGAAACTCACCCTAACTGTAAAGTAATTGTGTGTTTTGAGACTATAAATATCCCTTGGAGAAAAGCCTTGTTTGACTCGAGTGAGCGATCCAGGATTCAGATCTGGTTTCTGTAAAGCCACAGATGGGAAACCAGATCTGAATCCTGGACTGCCTACTAGAGCGCACGCCAGTTTTTT | – | 73±1 | greater or higher with the difference not being statistically significant | –
U6.mi405B: mi405 construct with altered flanking sequences (nucleic acid) DNA: ACGCCGCCATCTCTAGGCCCGCGCCGGCCCCCTCGCACAGACTTGTGGGAGAAGCTCGGCTACTCCCCTGCCCCGGTTAATTTGCATATAATATTTCCTAGTAACTATAGAGGCTTAATGTGCGATAAAAGACAGATAATCTGTTCTTTTTAATACTAGCTACATTTTACATGATAGGCTTGGATTTCTATAAGAGATACAAATACTAAATTATTATTTTAAAAAACAGCACAAAAGGAAACTCACCCTAACTGTAAAGTAATTGTGTGTTTTGAGACTATAAATATCCCTTGGAGAAAAGCCTTGTTTGACCGTTTAAACTCGAGTGAGCGATCCAGGATTCAGATCTGGTTTCTGTAAAGCCACAGATGGGAAACCAGATCTGAATCCTGGACTGCCTACTAGATTTTTT | – | 25±3 | – | 71±9
U6.mi405C: mi405 construct with altered flanking sequences (nucleic acid) DNA: ACGCCGCCATCTCTAGGCCCGCGCCGGCCCCCTCGCACAGACTTGTGGGAGAAGCTCGGCTACTCCCCTGCCCCGGTTAATTTGCATATAATATTTCCTAGTAACTATAGAGGCTTAATGTGCGATAAAAGACAGATAATCTGTTCTTTTTAATACTAGCTACATTTTACATGATAGGCTTGGATTTCTATAAGAGATACAAATACTAAATTATTATTTTAAAAAACAGCACAAAAGGAAACTCACCCTAACTGTAAAGTAATTGTGTGTTTTGAGACTATAAATATCCCTTGGAGAAAAGCCTTGTTTGCTCGAGTGAGCGATCCAGGATTCAGATCTGGTTTCTGTAAAGCCACAGATGGGAAACCAGATCTGAATCCTGGACTGCCTACTAGAGCGGCCGCCACTTTTTT | – | 64±1 | – | 63±27
U6.mi405A: mi405 construct with altered flanking sequences (nucleic acid) DNA: ACGCCGCCATCTCTAGGCCCGCGCCGGCCCCCTCGCACAGACTTGTGGGAGAAGCTCGGCTACTCCCCTGCCCCGGTTAATTTGCATATAATATTTCCTAGTAACTATAGAGGCTTAATGTGCGATAAAAGACAGATAATCTGTTCTTTTTAATACTAGCTACATTTTACATGATAGGCTTGGATTTCTATAAGAGATACAAATACTAAATTATTATTTTAAAAAACAGCACAAAAGGAAACTCACCCTAACTGTAAAGTAATTGTGTGTTTTGAGACTATAAATATCCCTTGGAGAAAAGCCTTGTTTGACCGTTTAAACTCGAGTGAGCGATCCAGGATTCAGATCTGGTTTCTGTAAAGCCACAGATGGGAAACCAGATCTGAATCCTGGACTGCCTACTAGAGCGGCCGCCACTTTTTT | – | 72±1 | greater or higher with the difference not being statistically significant | –
